Four molecules from PMC9482650, “Quantitative fragmentomics allow affinity mapping of interactomes” (Nature Communications, 2022) can be followed below.

Among the targets are IL16_3, Q14005; HTRA1, Q92743; MAGI2_5, Q86UL8; MAST1, Q9Y2H9; NOS1, P29475; DLG2_3, Q15700; DLG2_2, Q15700; PTPN3, P26045; TJP1_2, Q07157; PICK1, Q9NRD5; DLG1_2, Q12959.
What all share (test): holdup assay
What all share (parameters): key: below the threshold = too weak to quantify, mostly under pKd 3.1 to 4

Another experiment concerns the target T1, LIN7A, O14910.
T1 sequence (O14910 103-200, limits assumed, looked up): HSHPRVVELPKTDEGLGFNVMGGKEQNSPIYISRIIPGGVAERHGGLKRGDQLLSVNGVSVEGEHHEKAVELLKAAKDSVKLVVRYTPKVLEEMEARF

A further experiment has as its target T2, DLG3_1, Q92796.
T2 sequence (Q92796 125-227, limits assumed, looked up): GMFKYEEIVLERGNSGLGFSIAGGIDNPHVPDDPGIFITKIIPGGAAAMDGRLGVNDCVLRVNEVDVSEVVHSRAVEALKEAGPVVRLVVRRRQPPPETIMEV

The next experiment has as its target T3, TX1BP3, O14907.
T3 sequence (O14907 10-122, limits assumed, looked up): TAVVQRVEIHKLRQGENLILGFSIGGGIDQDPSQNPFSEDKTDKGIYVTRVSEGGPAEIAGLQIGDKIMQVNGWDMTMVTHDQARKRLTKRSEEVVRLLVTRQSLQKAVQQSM

A further experiment concerns the target T4, MPDZ_10, O75970.
T4 sequence (O75970 1624-1722, limits assumed, looked up): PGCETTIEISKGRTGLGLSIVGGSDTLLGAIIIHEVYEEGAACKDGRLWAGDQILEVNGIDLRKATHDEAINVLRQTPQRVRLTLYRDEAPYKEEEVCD

For a further experiment, the target named is T5, PDZRN3_1, Q9UPQ7.
T5 sequence (Q9UPQ7 244-349, limits assumed, looked up): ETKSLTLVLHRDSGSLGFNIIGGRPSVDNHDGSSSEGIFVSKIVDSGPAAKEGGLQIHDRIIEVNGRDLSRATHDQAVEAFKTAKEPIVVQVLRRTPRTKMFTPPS

The target in the next experiment is T6, NHERF3_1, Q5T2W1.
T6 sequence (Q5T2W1 4-100, limits assumed, looked up): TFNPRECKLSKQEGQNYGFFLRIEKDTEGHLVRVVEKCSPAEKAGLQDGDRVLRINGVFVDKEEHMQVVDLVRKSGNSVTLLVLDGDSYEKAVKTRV

The next experiment has as its target T7, MPDZ_12, O75970.
T7 sequence (O75970 1857-1958, limits assumed, looked up): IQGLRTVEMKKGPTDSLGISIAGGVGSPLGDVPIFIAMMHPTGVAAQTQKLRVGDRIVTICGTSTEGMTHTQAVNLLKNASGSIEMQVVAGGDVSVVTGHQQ

The next experiment concerns the target T8, DFNB31_2, Q9P202.
T8 sequence (Q9P202 274-371, limits assumed, looked up): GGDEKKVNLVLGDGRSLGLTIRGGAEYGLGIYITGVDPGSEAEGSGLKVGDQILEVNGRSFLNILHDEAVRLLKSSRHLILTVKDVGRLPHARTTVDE

The next experiment concerns the target T9, LRRC7, Q96NW7.
T9 sequence (Q96NW7 1440-1537, limits assumed, looked up): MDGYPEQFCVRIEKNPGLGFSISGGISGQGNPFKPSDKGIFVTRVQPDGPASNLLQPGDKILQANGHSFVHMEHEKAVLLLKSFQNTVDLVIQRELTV

Another experiment concerns the target T10, APBA2_2, Q99767.
T10 sequence (Q99767 654-744, limits assumed, looked up): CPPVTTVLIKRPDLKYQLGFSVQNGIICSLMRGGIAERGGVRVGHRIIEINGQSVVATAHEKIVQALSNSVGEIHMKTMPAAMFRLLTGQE

A further experiment concerns the target T11, MPDZ_5, O75970.
T11 sequence (O75970 695-796, limits assumed, looked up): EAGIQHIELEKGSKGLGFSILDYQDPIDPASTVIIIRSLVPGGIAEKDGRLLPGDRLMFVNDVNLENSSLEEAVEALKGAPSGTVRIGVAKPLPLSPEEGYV

A further experiment has as its target T12, ARHGAP21, Q5T5U3.
T12 sequence (Q5T5U3 45-169, limits assumed, looked up): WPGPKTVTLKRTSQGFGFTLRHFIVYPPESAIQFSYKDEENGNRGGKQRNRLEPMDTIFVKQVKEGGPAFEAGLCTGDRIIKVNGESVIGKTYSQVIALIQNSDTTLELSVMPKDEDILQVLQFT

In the next experiment the target is T13, NHERF3_4, Q5T2W1.
T13 sequence (Q5T2W1 373-468, limits assumed, looked up): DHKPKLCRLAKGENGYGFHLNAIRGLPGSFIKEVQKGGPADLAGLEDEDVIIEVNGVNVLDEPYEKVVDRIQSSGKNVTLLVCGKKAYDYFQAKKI

Where [1] appears, read: plain residues with an end cap or a label only (N-terminal biotin on a linker: ado-ado).
Setting [2] is: modified: phospho on T at position -2 from the C-terminal residue.

Sequence of HTRA1, Q92743 (Q92743 360-477): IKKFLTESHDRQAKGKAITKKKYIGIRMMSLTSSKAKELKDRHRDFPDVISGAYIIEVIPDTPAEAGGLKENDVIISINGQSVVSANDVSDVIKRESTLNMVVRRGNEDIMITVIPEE
Sequence of TJP1_2, Q07157 (Q07157 181-274): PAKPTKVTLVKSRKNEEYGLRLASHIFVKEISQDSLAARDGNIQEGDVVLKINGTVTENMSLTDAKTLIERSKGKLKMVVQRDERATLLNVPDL
Sequence of PTPN3, P26045 (P26045 505-587): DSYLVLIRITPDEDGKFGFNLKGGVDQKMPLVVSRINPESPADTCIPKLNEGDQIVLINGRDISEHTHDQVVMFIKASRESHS
Sequence of DLG1_2, Q12959 (Q12959 314-412): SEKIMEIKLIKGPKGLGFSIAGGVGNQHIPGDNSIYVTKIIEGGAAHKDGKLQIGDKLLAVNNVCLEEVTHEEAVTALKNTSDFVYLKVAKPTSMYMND
Sequence of NOS1, P29475 (P29475 9-101): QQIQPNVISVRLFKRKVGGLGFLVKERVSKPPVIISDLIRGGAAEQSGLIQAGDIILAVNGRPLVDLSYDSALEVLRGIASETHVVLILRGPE
Sequence of MAGI2_5, Q86UL8 (Q86UL8 915-1017): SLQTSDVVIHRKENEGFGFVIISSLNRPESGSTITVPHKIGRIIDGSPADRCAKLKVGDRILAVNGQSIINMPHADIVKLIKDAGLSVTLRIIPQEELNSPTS
Sequence of PICK1, Q9NRD5 (Q9NRD5 17-115): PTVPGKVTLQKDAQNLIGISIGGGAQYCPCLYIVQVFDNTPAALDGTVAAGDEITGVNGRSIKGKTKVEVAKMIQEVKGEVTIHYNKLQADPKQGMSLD
Sequence of MAST1, Q9Y2H9 (Q9Y2H9 962-1065): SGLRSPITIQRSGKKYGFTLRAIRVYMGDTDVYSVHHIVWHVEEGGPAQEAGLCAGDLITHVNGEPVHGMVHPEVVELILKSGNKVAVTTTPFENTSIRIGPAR
Sequence of IL16_3, Q14005 (Q14005 1107-1207): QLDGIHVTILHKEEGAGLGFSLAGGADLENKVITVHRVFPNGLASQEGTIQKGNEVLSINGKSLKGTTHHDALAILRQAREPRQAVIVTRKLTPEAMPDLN

Turning to LPHPHSTTRV [NLGN2, Q8NFZ4], the negative logarithm of the Kd (pKd) entry is “below the threshold” in the experiment with LIN7A, O14910 (setting [1]); “below the threshold” with DLG3_1, Q92796 (setting [1]); 3.79 with TX1BP3, O14907 (setting [1]); “below the threshold” with IL16_3, Q14005 (setting [1]); 3.6 with HTRA1, Q92743 (setting [1]); 3.62 in the experiment with MPDZ_10, O75970 (setting [1]). The pKd entry is “below the threshold” in the experiment with PDZRN3_1, Q9UPQ7 (setting [1]); “below the threshold” with MAGI2_5, Q86UL8 (setting [1]); 4.64 with MAST1, Q9Y2H9 (setting [1]); 3.63 with NOS1, P29475 (setting [1]); 4.42 in the experiment with DLG2_3, Q15700 (setting [1]); 3.9 with NHERF3_1, Q5T2W1 (setting [1]). For the same molecule, the pKd in the experiment with DLG2_2, Q15700 (setting [1]) was 3.59; with PTPN3, P26045 (setting [1]), “below the threshold”; in the experiment with MPDZ_12, O75970 (setting [1]) it was “below the threshold”; with TJP1_2, Q07157 (setting [1]) it was “below the threshold”; with PICK1, Q9NRD5 (setting [1]), 4.24; with DFNB31_2, Q9P202 (setting [1]), “below the threshold”. For the same molecule, the pKd entry in the experiment with LRRC7, Q96NW7 (setting [1]) was “below the threshold”; with APBA2_2, Q99767 (setting [1]), “below the threshold”; with DLG1_2, Q12959 (setting [1]) it was 4.07; in the experiment with MPDZ_5, O75970 (setting [1]), “below the threshold”; with ARHGAP21, Q5T5U3 (setting [1]), 3.71; with NHERF3_4, Q5T2W1 (setting [1]), “below the threshold”.

With PRISRSQSEL [CCDC134, Q9H6E4], the negative-log Kd (pKd) in the experiment with LIN7A, O14910 (setting [1]) is 3.52; with DLG3_1, Q92796 (setting [1]), “below the threshold”; with TX1BP3, O14907 (setting [1]), 3.52; with IL16_3, Q14005 (setting [1]), “below the threshold”; with HTRA1, Q92743 (setting [1]), “below the threshold”; with MPDZ_10, O75970 (setting [1]) it was “below the threshold”. Moreover, the pKd was 3.65 with PDZRN3_1, Q9UPQ7 (setting [1]); “below the threshold” with MAGI2_5, Q86UL8 (setting [1]); 4.74 with MAST1, Q9Y2H9 (setting [1]); “below the threshold” with NOS1, P29475 (setting [1]); 3.63 with DLG2_3, Q15700 (setting [1]); 4.42 in the experiment with NHERF3_1, Q5T2W1 (setting [1]). The negative logarithm of the Kd (pKd) result was “below the threshold” with DLG2_2, Q15700 (setting [1]); 4.22 in the experiment with PTPN3, P26045 (setting [1]); “below the threshold” with MPDZ_12, O75970 (setting [1]); “below the threshold” with TJP1_2, Q07157 (setting [1]); 4.14 in the experiment with PICK1, Q9NRD5 (setting [1]); “below the threshold” with DFNB31_2, Q9P202 (setting [1]). In addition, the negative logarithm of the Kd (pKd) entry with LRRC7, Q96NW7 (setting [1]) was “below the threshold”; with APBA2_2, Q99767 (setting [1]) it was “below the threshold”; in the experiment with DLG1_2, Q12959 (setting [1]), “below the threshold”; in the experiment with MPDZ_5, O75970 (setting [1]), “below the threshold”; in the experiment with ARHGAP21, Q5T5U3 (setting [1]), “below the threshold”; in the experiment with NHERF3_4, Q5T2W1 (setting [1]), “below the threshold”.

As for QGLAERISVL [PRKD2, Q9BZL6], the pKd entry in the experiment with LIN7A, O14910 (setting [1]) is “below the threshold”; with DLG3_1, Q92796 (setting [1]), “below the threshold”; with TX1BP3, O14907 (setting [1]) it was 4.38; with IL16_3, Q14005 (setting [1]) it was “below the threshold”; with HTRA1, Q92743 (setting [1]), 4.77; with MPDZ_10, O75970 (setting [1]), 3.76. Moreover, the pKd in the experiment with PDZRN3_1, Q9UPQ7 (setting [1]) was 3.84; with MAGI2_5, Q86UL8 (setting [1]), 4.13; in the experiment with MAST1, Q9Y2H9 (setting [1]), 4.52; in the experiment with NOS1, P29475 (setting [1]), 3.88; in the experiment with DLG2_3, Q15700 (setting [1]) it was “below the threshold”; with NHERF3_1, Q5T2W1 (setting [1]) it was 4.28. Also, the negative-log Kd (pKd) result is “below the threshold” in the experiment with DLG2_2, Q15700 (setting [1]); 4.72 with PTPN3, P26045 (setting [1]); “below the threshold” with MPDZ_12, O75970 (setting [1]); “below the threshold” with TJP1_2, Q07157 (setting [1]); 4.17 with PICK1, Q9NRD5 (setting [1]); “below the threshold” with DFNB31_2, Q9P202 (setting [1]). The negative-log Kd (pKd) result with LRRC7, Q96NW7 (setting [1]) was “below the threshold”; with APBA2_2, Q99767 (setting [1]), “below the threshold”; with DLG1_2, Q12959 (setting [1]) it was 3.67; with MPDZ_5, O75970 (setting [1]), “below the threshold”; with ARHGAP21, Q5T5U3 (setting [1]), 3.93; with NHERF3_4, Q5T2W1 (setting [1]), 3.73.

Consider RLQRRRETQV [HPV18-E6_-2P, P06463], for which the pKd result with LIN7A, O14910 (setting [2]) is “below the threshold”; in the experiment with DLG3_1, Q92796 (setting [2]), “below the threshold”; with TX1BP3, O14907 (setting [2]), “below the threshold”; in the experiment with IL16_3, Q14005 (setting [2]), “below the threshold”; with HTRA1, Q92743 (setting [2]), “below the threshold”; with MPDZ_10, O75970 (setting [2]), “below the threshold”. For the same molecule, the pKd result was “below the threshold” in the experiment with PDZRN3_1, Q9UPQ7 (setting [2]); “below the threshold” with MAGI2_5, Q86UL8 (setting [2]); “below the threshold” with MAST1, Q9Y2H9 (setting [2]); 3.75 with NOS1, P29475 (setting [2]); 3.88 with DLG2_3, Q15700 (setting [2]); “below the threshold” with NHERF3_1, Q5T2W1 (setting [2]). The negative logarithm of the Kd (pKd) with DLG2_2, Q15700 (setting [2]) is 3.48; with PTPN3, P26045 (setting [2]), “below the threshold”; with MPDZ_12, O75970 (setting [2]) it was “below the threshold”; with TJP1_2, Q07157 (setting [2]), “below the threshold”; with PICK1, Q9NRD5 (setting [2]), “below the threshold”; with DFNB31_2, Q9P202 (setting [2]) it was “below the threshold”. The pKd entry was “below the threshold” with LRRC7, Q96NW7 (setting [2]); “below the threshold” with APBA2_2, Q99767 (setting [2]); “below the threshold” in the experiment with DLG1_2, Q12959 (setting [2]); “below the threshold” with MPDZ_5, O75970 (setting [2]); 4.03 with ARHGAP21, Q5T5U3 (setting [2]); “below the threshold” with NHERF3_4, Q5T2W1 (setting [2]).

The term pKd denotes the negative decadic logarithm of the Kd, by convention in mol/L.
